Test results taken from patent publication US20150119342A1 (published 2015).
Where no end group is shown, it is not given here. [ ]: non-standard residue; d: D form. The star is where a group is joined. 5FAM = O=C1OC2(c3ccc(O)cc3Oc3cc(O)ccc32)c2ccc(C(=O)*)cc21; Abu = CC[C@H](N)C(=O)O

What was measured:
[1] = biological target: T1, human cIAP1 BIR3 domain with C-terminal 6xHis-tag (human, UniProt Q13490 251-363, limits assumed); assay: fluorescence polarization, saturation binding; 2 nM probe, protein 0 to 20 µM
T1 construct: domain: BIR3
Method: (§1) After shaking (15 min) the plate was incubated for 3 hours at room temperature. […] All experiments were performed in black, flat-bottom 96-well microplates (Greiner bio-one).

[2] = biological target: T2, human cIAP2 BIR3 domain with C-terminal 6xHis-tag (human, UniProt Q13489 237-349, limits assumed); assay: as above
T2 construct: domain: BIR3
Method: as §1

T2 sequence (Q13489 other isoform, or with tags, fused parts or gaps limits assumed): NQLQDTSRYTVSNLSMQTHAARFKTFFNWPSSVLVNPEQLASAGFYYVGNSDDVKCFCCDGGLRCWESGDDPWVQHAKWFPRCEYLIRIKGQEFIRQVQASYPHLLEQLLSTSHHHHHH
T1 sequence (Q13490 other isoform, or with tags, fused parts or gaps limits assumed): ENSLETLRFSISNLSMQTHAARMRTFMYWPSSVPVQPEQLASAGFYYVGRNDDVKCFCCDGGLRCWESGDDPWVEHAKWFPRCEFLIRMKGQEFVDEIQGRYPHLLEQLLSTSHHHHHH

- Kd [1]: 4.8 nM
- Kd [2]: 23.6 nM
B1: Fluorescent-labelled Smac peptide [AbuRPF-K(5-Fam)-NH2] (peptide)
peptide: [Abu]RPFK(5FAM)-NH2
modifications: N-terminus assumed
SMILES: CC[C@H](N)C(=O)N[C@@H](CCCNC(=N)N)C(=O)N1CCC[C@H]1C(=O)N[C@@H](Cc1ccccc1)C(=O)N[C@@H](CCCCNC(=O)c1ccc2c(c1)C(=O)OC21c2ccc(O)cc2Oc2cc(O)ccc21)C(N)=O
notes: Synthetic labelled probe used in the fluorescence polarization assays; also called FITC-SMAC; fluorescently-labelled Smac peptide
